The test concerns the target neonatal Fc receptor (FcRn) (UniProt P55899 24-297, limits assumed). Briefly: comparison of observed KD values; the assay for FcRn is not described here.

Chain of neonatal Fc receptor (FcRn) (P55899 24-297 limits assumed, form in doubt, chain 1 of 2): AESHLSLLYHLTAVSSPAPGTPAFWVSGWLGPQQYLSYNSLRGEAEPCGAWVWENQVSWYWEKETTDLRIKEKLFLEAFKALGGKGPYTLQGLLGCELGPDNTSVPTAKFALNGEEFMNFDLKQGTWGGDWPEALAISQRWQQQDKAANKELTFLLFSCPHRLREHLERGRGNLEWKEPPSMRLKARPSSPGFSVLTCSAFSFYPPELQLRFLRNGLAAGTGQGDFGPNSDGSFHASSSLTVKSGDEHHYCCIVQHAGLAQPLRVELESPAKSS
Chain of neonatal Fc receptor (FcRn) (chain, as listed by the source limits assumed, form in doubt, chain 2 of 2): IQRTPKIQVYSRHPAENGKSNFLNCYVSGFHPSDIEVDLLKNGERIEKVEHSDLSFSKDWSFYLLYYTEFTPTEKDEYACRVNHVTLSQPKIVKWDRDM

B1: human alpha-fetoprotein (AFP) (ligand)
chain: RTLHRNEYGIASILDSYQCTAEISLADLATIFFAQFVQEATYKEVSKMVKDALTAIEKPTGDEQSSGCLENQLPAFLEELCHEKEILEKYGHSDCCSQSEEGRHNCFLAHKKPTPASIPLFQVPEPVTSCEAYEEDRETFMNKFIYEIARRHPFLYAPTILLWAARYDKIIPSCCKAENAVECFQTKAATVTKELRESSLLNQHACAVMKNFGTRTFQAITVTKLSQKFTKVNFTEIQKLVLDVAHVHEHCCRGDVLDCLQDGEKIMSYICSQQDTLSNKITECCKLTTLERGQCIIHAENDEKPEGLSPNLNRFLGDRDFNQFSSGEKNIFLASFVHEYSRRHPQLAVSVILRVAKGYQELLEKCFQTENPLECQDKGEEELQKYIQESQALAKRSCGLFQKLGEYYLQNAFLVAYTKKAPQLTSSELMAITRKMAATAATCCQLSEDKLLACGEGAADIIIGHLCIRHEMTPVNPGVGQCCTSSYANRRPCFSSLVVDETYVPPAFSDDKFIFHKDLCQAQGVALQTMKQEFLINLVKQKPQITEEQLEAVIADFSGLLEKCCQGQEQEVCFAEEGQKLISKTRAALGV
notes: also called hAFP; human AFP
For the molecule B1, the “fold higher affinity than AFP to β2M” value was 100 fold.

These data come from US20190201496A1 (BRIGHAM AND WOMEN S HOSPITAL, published 2019).
